# Measurements as given in patent US10052368B2, “Pegylated tissue kallikrein, and preparation method therefor and uses thereof” (ZONHON BIOPHARMA INSTITUTE INC., priority 2013, dated 2018).
# System: cerebral ischemia reperfusion model of middle cerebral artery obstruction (MCAO)
# Test: Cerebral ischemia reperfusion model of middle cerebral artery obstruction (MCAO)
# Format: in vivo
# Settings: SD rats, 3 μg/kg once via vena caudalis
# Excerpt: A cerebral ischemia reperfusion model of middle cerebral artery obstruction (MCAO) was established by thread embolizing the internal carotid artery of SD rats (purchased from Shanghai Sippr bk Laboratory Animal Co. LTD.) A positive control 1 group (urinary kallikrein, Guangdong Tianpu Biochemical Pharmaceutical Co., LTD.), a positive control 2 group (tPA, Shanghai Boehringer Ingelheim Pharmaceuticals Co., LTD), a model control group (PBS), a sham group, a kallikrein group (from Changzhou Qianhong Biochemical Pharmaceutical Co., LTD.), a conjugate 1 group, a conjugate 2 group, a conjugate 3 group, and a conjugate 4 group were arranged respectively. Administration by injection through vena caudalis was performed once at 3 μg/kg (calculated according to the protein amount) immediately after the cerebral ischemia reperfusion. Neurologic deficit symptoms were observed 24 h after the reperfusion, and the cerebral infarction area was determined. In the model group, an equal volume of PBS was injected through vena caudalis into the rat. In the sham group, only blood vessels were separated, no embolizing thread was inserted, and an equal volume of PBS was injected through vena caudalis into the rats. Neurologic deficit symptoms were evaluated employing an improved Bederson 5-point system method. Neurologic deficit symptoms of the rats after brain trauma were evaluated by a single-blind method, i.e., the animals were marked according to groups by designers of the experiment, and scores of the neurologic deficit symptoms were given by experimenters blind to the grouping situation. The cerebral infarction area was calculated employing the following method. Cerebrums of the SD rats were stained with TTC (2,3,5-triphenyltetrazolium chloride) and then the photographs were subjected to statistics using an image analysis software, and the percentage of cerebral infarction area was calculated according to the following formula: % cerebral infarction area=100×(total ischemic area/total area on the right side)
molecule,measurement,setting,value
"Positive control 2: tPA, Shanghai Boehringer Ingelheim Pharmaceuticals (protein, UniProt P00750 36-562, looked up) Tissue-type plasminogen …: SYQVICRDEKTQMIYQQHQSWLRPVLRSNRVEYCWCNSGRAQCHSVPVKSCSEPRCFNGGTCQQALYFSDFVCQCPEGFAGKCCEIDTRATCYEDQGISYRGTWSTAESGAECTNWNSSALAQKPYSGRRPDAIRLGLGNHNYCRNPDRDSKPWCYVFKAGKYSSEFCSTPACSEGNSDCYFGNGSAYRGTHSLTESGASCLPWNSMILIGKVYTAQNPSAQALGLGKHNYCRNPDGDAKPWCHVLKNRRLTWEYCDVPSCSTCGLRQYSQPQFRIKGGLFADIASHPWQAAIFAKHRRSPGERFLCGGILISSCWILSAAHCFQERFPPHHLTVILGRTYRVVPGEEEQKFEVEKYIVHKEFDDDTYDNDIALLQLKSDSSRCAQESSVVRTVCLPPADLQLPDWTECELSGYGKHEALSPFYSERLKEAHVRLYPSSRCTSQHLLNRTVTDNMLCAGDTRSGGPQANLHDACQGDSGGPLVCLNDGRMTLVGIISWGLGCGQKDVPGVYTKVTNYLDWIRDNMRP",amelioration of cerebral infarction status of the model animals (in words),,no apparent amelioration
same,Cerebral infarction area (%),"24 h after reperfusion, TTC staining",31.55 ± 2.71%
same,Score of neurologic deficit symptom,"24 h after reperfusion, improved Bederson 5-point system",3.00 ± 0.20
